Data as given in patent US20200165325A1.

Columns and labels:
[1] = target: Env (gp120) of HIV-1 strain ZM214M.PL15 (HIV-1)
[2] = target: Env (gp120) of HIV-1 strain 231965.c01 (HIV-1)
[3] = target: Env (gp120) of HIV-1 strain 0330.v4.c3 (HIV-1)
[4] = target: Env (gp120) of HIV-1 strain X1193_c1 (HIV-1)
[5] = target: Env (gp120) of HIV-1 strain Ce2010_F5 (HIV-1)
[6] = target: Env (gp120) of HIV-1 strain P1981_C5_3 (HIV-1)
[7] = target: Env (gp120) of HIV-1 strain T255-34 (HIV-1)
[8] = target: Env (gp120) of HIV-1 strain 62357_14_D3_4589 (HIV-1)
[9] = target: Env (gp120) of HIV-1 strain 1054_07_TC4_1499 (HIV-1)
[10] = target: Env (gp120) of HIV-1 strain C3347.c11 (HIV-1)
[11] = target: Env (gp120) of HIV-1 strain CNE20 (HIV-1)
[12] = target: Env (gp120) of HIV-1 strain TRJO4551.58 (HIV-1)
[13] = target: Env (gp120) of HIV-1 strain CNE58 (HIV-1)
[14] = target: Env (gp120) of HIV-1 strain Q769.d22 (HIV-1)
[15] = target: Env (gp120) of HIV-1 strain CNE21 (HIV-1)
[16] = target: Env (gp120) of HIV-1 strain 89-F1_2_25 (HIV-1)
[17] = target: Env (gp120) of HIV-1 strain ZM109F.PB4 (HIV-1)
[18] = target: Env (gp120) of HIV-1 strain 703357.C02 (HIV-1)
[19] = target: Env (gp120) of HIV-1 strain REJO4541.67 (HIV-1)
[20] = target: Env (gp120) of HIV-1 strain ZM247v1(Rev-) (HIV-1)
[21] = target: Env (gp120) of HIV-1 strain Ce703010054_2A2 (HIV-1)
[22] = target: Env (gp120) of HIV-1 strain ZM233M.PB6 (HIV-1)
[23] = target: Env (gp120) of HIV-1 strain RHPA4259.7 (HIV-1)
[24] = target: Env (gp120) of HIV-1 strain R2184.c04 (HIV-1)
[25] = target: Env (gp120) of HIV-1 strain ZM53M.PB12 (HIV-1)
[26] = target: Env (gp120) of HIV-1 strain SC422661.8 (HIV-1)
[27] = target: Env (gp120) of HIV-1 strain Ce1176_A3 (HIV-1)
[28] = target: Env (gp120) of HIV-1 strain CNE17 (HIV-1)
[29] = target: Env (gp120) of HIV-1 strain HIV-16845-2.22 (HIV-1)
[30] = target: Env (gp120) of HIV-1 strain Q23.17 (HIV-1)
[31] = target: Env (gp120) of HIV-1 strain PVO.4 (HIV-1)
[32] = target: Env (gp120) of HIV-1 strain Du156.12 (HIV-1)
[33] = target: Env (gp120) of HIV-1 strain Q461.e2 (HIV-1)
[34] = target: Env (gp120) of HIV-1 strain AC10.0.29 (HIV-1)
[35] = target: Env (gp120) of HIV-1 strain C2101.c01 (HIV-1)
[36] = target: Env (gp120) of HIV-1 strain X1254_c3 (HIV-1)
[37] = target: Env (gp120) of HIV-1 strain 620345.c01 (HIV-1)
[38] = target: Env (gp120) of HIV-1 strain T251-18 (HIV-1)
[39] = target: Env (gp120) of HIV-1 strain 3103.v3.c10 (HIV-1)
[40] = target: Env (gp120) of HIV-1 strain Du422.1 (HIV-1)
[41] = target: Env (gp120) of HIV-1 strain X2131_C1_B5 (HIV-1)
[42] = target: Env (gp120) of HIV-1 strain 3817.v2.c59 (HIV-1)
[43] = target: Env (gp120) of HIV-1 strain CNE53 (HIV-1)
[44] = target: Env (gp120) of HIV-1 strain Q259.d2.17 (HIV-1)
[45] = target: Env (gp120) of HIV-1 strain 0815.v3.c3 (HIV-1)
[46] = target: Env (gp120) of HIV-1 strain 231966.c02 (HIV-1)
[47] = target: Env (gp120) of HIV-1 strain 3718.v3.c11 (HIV-1)
[48] = target: Env (gp120) of HIV-1 strain 928-28 (HIV-1)
[49] = target: Env (gp120) of HIV-1 strain 6480.v4.c25 (HIV-1)
[50] = target: Env (gp120) of HIV-1 strain CAAN5342.A2 (HIV-1)

NIH45-46^G54W IgG (antibody) was tested, and the neutralization IC50 [1] was 0.03 µg/mL, the neutralization IC50 [2] was less than 0.001 µg/mL and the neutralization IC50 [3] was 0.03 µg/mL. The neutralization IC50 [4] was less than 0.001 µg/mL, the neutralization IC50 [5] was 0.038 µg/mL and the neutralization IC50 [6] was 0.02 µg/mL. It also gave a neutralization IC50 [7] of less than 0.001 µg/mL, a neutralization IC50 [8] of 0.02 µg/mL and a neutralization IC50 [9] of 0.04 µg/mL. For the same substance, the neutralization IC50 [10] was less than 0.001 µg/mL, the neutralization IC50 [11] was 0.04 µg/mL and the neutralization IC50 [12] was 0.01 µg/mL. For the same substance, the neutralization IC50 [13] was 0.02 µg/mL, the neutralization IC50 [14] was less than 0.001 µg/mL and the neutralization IC50 [15] was 0.03 µg/mL. For the same substance, the neutralization IC50 [16] was greater than 50 µg/mL, the neutralization IC50 [17] was 0.002 µg/mL and the neutralization IC50 [18] was 3.43 µg/mL. It also gave a neutralization IC50 [19] of 0.002 µg/mL, a neutralization IC50 [20] of 0.32 µg/mL and a neutralization IC50 [21] of 0.027 µg/mL. For the same substance, the neutralization IC50 [22] was 0.02 µg/mL, the neutralization IC50 [23] was less than 0.001 µg/mL and the neutralization IC50 [24] was 0.005 µg/mL. For the same substance, the neutralization IC50 [25] was 0.04 µg/mL, the neutralization IC50 [26] was 0.02 µg/mL and the neutralization IC50 [27] was 0.16 µg/mL. For the same substance, the neutralization IC50 [28] was 0.036 µg/mL, the neutralization IC50 [29] was 0.45 µg/mL and the neutralization IC50 [30] was 0.01 µg/mL. The neutralization IC50 [31] was 0.05 µg/mL, the neutralization IC50 [32] was less than 0.001 µg/mL and the neutralization IC50 [33] was 0.009 µg/mL. It also gave a neutralization IC50 [34] of 0.13 µg/mL, a neutralization IC50 [35] of 0.04 µg/mL and a neutralization IC50 [36] of 0.002 µg/mL. The neutralization IC50 [37] was greater than 50 µg/mL, the neutralization IC50 [38] was 0.26 µg/mL and the neutralization IC50 [39] was 0.2 µg/mL. The neutralization IC50 [40] was greater than 50 µg/mL, the neutralization IC50 [41] was 0.05 µg/mL and the neutralization IC50 [42] was greater than 50 µg/mL. The neutralization IC50 [43] was less than 0.001 µg/mL, the neutralization IC50 [44] was less than 0.001 µg/mL and the neutralization IC50 [45] was less than 0.001 µg/mL. For the same substance, the neutralization IC50 [46] was 0.02 µg/mL, the neutralization IC50 [47] was 0.01 µg/mL and the neutralization IC50 [48] was 0.06 µg/mL. For the same substance, the neutralization IC50 [49] was 0.004 µg/mL and the neutralization IC50 [50] was 0.07 µg/mL.
Substance NIH45-46^G54Y IgG (antibody) has a neutralization IC50 [1] of 0.06 µg/mL, a neutralization IC50 [2] of 0.025 µg/mL and a neutralization IC50 [3] of 0.03 µg/mL. It also gave a neutralization IC50 [4] of 0.006 µg/mL, a neutralization IC50 [5] of 0.049 µg/mL and a neutralization IC50 [6] of 0.04 µg/mL. It also gave a neutralization IC50 [7] of 0.04 µg/mL, a neutralization IC50 [8] of 0.03 µg/mL and a neutralization IC50 [9] of 0.064 µg/mL. It also gave a neutralization IC50 [10] of 0.011 µg/mL, a neutralization IC50 [11] of 0.33 µg/mL and a neutralization IC50 [12] of 0.03 µg/mL. It also gave a neutralization IC50 [13] of 0.04 µg/mL, a neutralization IC50 [14] of 0.007 µg/mL and a neutralization IC50 [15] of 0.07 µg/mL. For the same substance, the neutralization IC50 [16] was greater than 50 µg/mL, the neutralization IC50 [17] was 0.026 µg/mL and the neutralization IC50 [18] was 5.6 µg/mL. The neutralization IC50 [19] was 0.007 µg/mL, the neutralization IC50 [20] was 0.42 µg/mL and the neutralization IC50 [21] was 0.022 µg/mL. It also gave a neutralization IC50 [22] of 0.16 µg/mL, a neutralization IC50 [23] of 0.007 µg/mL and a neutralization IC50 [24] of 0.015 µg/mL. For the same substance, the neutralization IC50 [25] was 0.06 µg/mL, the neutralization IC50 [26] was 0.04 µg/mL and the neutralization IC50 [27] was 0.21 µg/mL. For the same substance, the neutralization IC50 [28] was 0.073 µg/mL, the neutralization IC50 [29] was 0.59 µg/mL and the neutralization IC50 [30] was 0.02 µg/mL. For the same substance, the neutralization IC50 [31] was 0.06 µg/mL, the neutralization IC50 [32] was 0.007 µg/mL and the neutralization IC50 [33] was 0.023 µg/mL. It also gave a neutralization IC50 [34] of 0.19 µg/mL, a neutralization IC50 [35] of 0.09 µg/mL and a neutralization IC50 [36] of 0.013 µg/mL. For the same substance, the neutralization IC50 [37] was greater than 50 µg/mL, the neutralization IC50 [38] was 0.35 µg/mL and the neutralization IC50 [39] was 0.3 µg/mL. It also gave a neutralization IC50 [40] greater than 50 µg/mL, a neutralization IC50 [41] of 0.1 µg/mL and a neutralization IC50 [42] greater than 50 µg/mL. For the same substance, the neutralization IC50 [43] was 0.006 µg/mL, the neutralization IC50 [44] was 0.009 µg/mL and the neutralization IC50 [45] was less than 0.001 µg/mL. It also gave a neutralization IC50 [46] of 0.06 µg/mL, a neutralization IC50 [47] of 0.3 µg/mL and a neutralization IC50 [48] of 0.12 µg/mL. The neutralization IC50 [49] was 0.018 µg/mL and the neutralization IC50 [50] was 0.1 µg/mL.
